Laboratory results taken from IntAct's records for PubMed 10449590.

B1: Transcription initiation factor IIB (Homo sapiens), Q00403 (parent)
chain: MASTSRLDALPRVTCPNHPDAILVEDYRAGDMICPECGLVVGDRVIDVGSEWRTFSNDKATKDPSRVGDSQNPLLSDGDLSTMIGKGTGAASFDEFGNSKYQNRRTMSSSDRAMMNAFKEITTMADRINLPRNIVDRTNNLFKQVYEQKSLKGRANDAIASACLYIACRQEGVPRTFKEICAVSRISKKEIGRCFKLILKALETSVDLITTGDFMSRFCSNLCLPKQVQMAATHIARKAVELDLVPGRSPISVAAAAIYMASQASAEKRTQKEIGDIAGVADVTIRQSYRLIYPRAPDLFPTDFKFDTPVDKLPQL
partner: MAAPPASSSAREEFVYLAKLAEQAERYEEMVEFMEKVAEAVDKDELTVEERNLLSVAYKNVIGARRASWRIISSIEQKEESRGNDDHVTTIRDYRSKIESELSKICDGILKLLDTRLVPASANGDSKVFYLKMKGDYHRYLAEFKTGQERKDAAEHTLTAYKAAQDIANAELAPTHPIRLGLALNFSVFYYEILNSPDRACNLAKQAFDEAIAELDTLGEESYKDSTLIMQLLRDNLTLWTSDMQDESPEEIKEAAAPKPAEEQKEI
B2: 14-3-3-like protein GF14 phi (Arabidopsis thaliana (Mouse-ear cress)), P46077 (parent)
chain: B1 partner
partner: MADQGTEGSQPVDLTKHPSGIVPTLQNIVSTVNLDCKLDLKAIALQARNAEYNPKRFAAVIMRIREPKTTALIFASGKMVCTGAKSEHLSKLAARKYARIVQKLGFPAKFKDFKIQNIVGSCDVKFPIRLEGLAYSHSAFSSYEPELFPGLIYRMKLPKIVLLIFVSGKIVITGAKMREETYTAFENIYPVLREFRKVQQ
B3: 14-3-3-like protein GF14 phi (Arabidopsis thaliana (Mouse-ear cress)), P46077 (parent)
chain: B1 partner
partner: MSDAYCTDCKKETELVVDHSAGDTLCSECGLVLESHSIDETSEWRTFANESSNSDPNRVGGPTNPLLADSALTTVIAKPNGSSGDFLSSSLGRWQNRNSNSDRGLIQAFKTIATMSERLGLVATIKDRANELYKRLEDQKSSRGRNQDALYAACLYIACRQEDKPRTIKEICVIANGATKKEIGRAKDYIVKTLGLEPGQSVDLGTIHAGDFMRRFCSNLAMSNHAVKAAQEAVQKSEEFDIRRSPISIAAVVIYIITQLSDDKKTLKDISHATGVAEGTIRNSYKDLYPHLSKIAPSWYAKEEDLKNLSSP
B4: 14-3-3 protein epsilon (Homo sapiens), P62258 (parent)
chain: MDDREDLVYQAKLAEQAERYDEMVESMKKVAGMDVELTVEERNLLSVAYKNVIGARRASWRIISSIEQKEENKGGEDKLKMIREYRQMVETELKLICCDILDVLDKHLIPAANTGESKVFYYKMKGDYHRYLAEFATGNDRKEAAENSLVAYKAASDIAMTELPPTHPIRLGLALNFSVFYYEILNSPDRACRLAKAAFDDAIAELDTLSEESYKDSTLIMQLLRDNLTLWTSDMQGDGEEQNKEALQDVEDENQ

Variants of: B1
Conditions: with 14334_arath GRF4, P46077

Row | Variant | effect of a mutation on the interaction
1 | R185E;R193E | decreasing interaction

Variants of: B2
Conditions: with tbp2_arath TBP2, P28148

Row | Variant | effect of a mutation on the interaction
2 | L184A;N185A | decreasing interaction
3 | V188A;F189A | decreasing interaction
4 | F186A;S187A | disrupting interaction

Variants of: B3
Conditions: with tf2b1_arath TFIIB1, P48512

Row | Variant | effect of a mutation on the interaction
5 | F186A;S187A | disrupting interaction
6 | L184A;N185A | decreasing interaction
7 | V188A;F189A | decreasing interaction

Variants of: B4
Conditions: with tbp_human TBP

Row | Variant | effect of a mutation on the interaction
8 | F177A;S178A | disrupting interaction
9 | V179A;F180A | decreasing interaction
10 | L175A;N176A | decreasing interaction
